One data set concerns the target T1, ksORF57 68-178 (Kaposi's sarcoma-associated herpesvirus …, UniProt Q2HR75 68-178).
T1 sequence: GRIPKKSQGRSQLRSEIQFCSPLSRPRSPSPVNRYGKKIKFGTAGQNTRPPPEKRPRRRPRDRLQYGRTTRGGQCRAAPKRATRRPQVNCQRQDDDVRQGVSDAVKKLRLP
The data set is described as follows: NMR HSQC; equimolar, 50 uM protein; substantial broadening; SPR: 20 mM HEPES, 250 mM NaCl, 0.05% Tween-20, pH 7.4, 25 C, protein up to 1 uM; NMR: 20 mM Na phosphate, 50 mM NaCl, 50 mM L-Arg, 50 mM L-Glu, 1 mM EDTA, 2 mM. The settings on record: protein: recombinant; tags: His-tag (purification), 15N labelled.

Data set [1] deals with the molecule itself. The data set is described as follows: SEC-MALS; 0.5 ml at 1 mg/ml on Superdex 200 10/300GL, gel filtration buffer (20 mM HEPES, 150 mM NaCl, 50 mM L-Arg, 50 mM L-Glu, 1 mM TCEP, pH 7.4); homo-dimer.
In data set [2] the target is T2, hvsORF57Δ146 (herpesvirus saimiri (HVS), UniProt P13199 146-417). The experiment in a line: X-ray crystallography; Zn2+ in protein; Mg2+/Ca2+ in crystallization; SPR: 20 mM HEPES, 250 mM NaCl, 0.05% Tween-20, pH 7.4, 25 C, protein up to 1 uM; NMR: 20 mM Na phosphate, 50 mM NaCl, 50 mM L-Arg, 50 mM L-Glu, 1 mM EDTA, 2 mM. The settings on record: protein: recombinant; tags: thioredoxin/Strep tag cleaved by HRV3C; residue 145 is cloning Gly; chain copies: 2.

In the next data set the target is ICP27Δ241 (HSV-1, UniProt P10238 241-512). The experiment in a line: SPR; SPR: 20 mM HEPES, 250 mM NaCl, 0.05% Tween-20, pH 7.4, 25 C, protein up to 1 uM; NMR: 20 mM Na phosphate, 50 mM NaCl, 50 mM L-Arg, 50 mM L-Glu, 1 mM EDTA, 2 mM. The settings on record: protein: recombinant; tags: Strep-tag (purification); label: 5'-biotin.
Another data set deals with T3, UL69 200-540 (HCMV, UniProt P16749 200-540).
T3 sequence: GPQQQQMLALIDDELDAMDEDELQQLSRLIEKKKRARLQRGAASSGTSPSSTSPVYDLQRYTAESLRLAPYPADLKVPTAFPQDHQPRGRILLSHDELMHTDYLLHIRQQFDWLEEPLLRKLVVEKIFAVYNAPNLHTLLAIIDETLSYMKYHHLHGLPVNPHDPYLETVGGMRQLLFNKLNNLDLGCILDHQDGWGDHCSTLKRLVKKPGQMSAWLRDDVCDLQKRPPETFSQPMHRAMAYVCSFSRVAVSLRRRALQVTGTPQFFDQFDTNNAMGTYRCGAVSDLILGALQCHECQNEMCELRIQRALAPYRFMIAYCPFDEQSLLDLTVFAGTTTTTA
The description is as above. Particulars: protein: recombinant; tags: Strep-tag (purification); chain copies: 4; label: 5'-biotin.

For another data set, the target named is T4, ksORF57Δ153 (Kaposi's sarcoma-associated herpesvirus …, UniProt Q2HR75 153-455).
T4 sequence: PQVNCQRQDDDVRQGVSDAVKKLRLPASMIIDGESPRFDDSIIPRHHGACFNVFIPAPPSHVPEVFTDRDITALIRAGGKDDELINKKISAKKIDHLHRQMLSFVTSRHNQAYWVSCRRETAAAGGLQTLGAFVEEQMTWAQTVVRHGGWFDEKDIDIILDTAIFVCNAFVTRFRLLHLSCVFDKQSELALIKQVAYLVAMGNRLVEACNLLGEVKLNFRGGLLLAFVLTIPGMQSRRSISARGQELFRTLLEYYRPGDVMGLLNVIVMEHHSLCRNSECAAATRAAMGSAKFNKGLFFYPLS
The description is as above. Particulars: protein: recombinant; tags: thioredoxin/Strep tag cleaved by HRV3C; chain copies: 2; label: 5'-biotin.

Data set [3] deals with T2, hvsORF57Δ146. The data set is described as above. Particulars: protein: recombinant; tags: thioredoxin/Strep tag cleaved by HRV3C; residue 145 is cloning Gly; chain copies: 2; label: 5'-biotin.
Data set [4] concerns the target T2, hvsORF57Δ146. The experiment in a line: X-ray crystallography; same U-bend interaction as PAN17; data not shown; SPR: 20 mM HEPES, 250 mM NaCl, 0.05% Tween-20, pH 7.4, 25 C, protein up to 1 uM; NMR: 20 mM Na phosphate, 50 mM NaCl, 50 mM L-Arg, 50 mM L-Glu, 1 mM EDTA, 2 mM. The settings on record: protein: recombinant; tags: thioredoxin/Strep tag cleaved by HRV3C; residue 145 is cloning Gly; chain copies: 2.

B1: 14merS (ssRNA)
RNA: CAGUCGCGAAGAGG
On to B1, for which the binding result with ksORF57 68-178 was “binds”.

B2: HVS ORF57 residues 146–417 (hvsORF57Δ146) (domain or fragment)
chain: PLLKLFDISILPKSGEPKLFLPVPSLPCQEAEKTNDKYVLAMAQRAMHDVPISSKQLTANLLPVKFKPLLSIVRYTPNYYYWVSMRKETIASANLCTVAAFLDESLCWGQQYLKNDFIFSENGKDIILDTSSALLSQLVHKIKMLPFCHCLMQTTPQDHIVKQVCYLIASNNRILDAVRYLQTSVIKSPIVLLLAYAVCLPAAIICTKNETQLYSHCMRILKEYRPGDVMNILHESLTQHLNKCPSSTCAYTTRAIVGTKANTTGLFFLPTQ
notes: ORF57 (ICP27 homolog) of herpesvirus saimiri (HVS), residues 146-417, the C-terminal ICP27-homology domain; Selenomethionine-derivatised protein was used for crystals of the free form; native protein for the RNA complex and SEC-MALS; also called C-terminal IHD of hvsORF57; C-terminal ICP27-homology domain of HVS ORF57; source: E. coli T7 express LysY, purified (StrepTrap HP, HRV3C cleavage, …)
As for B2, the “stoichiometry N” value in data set [1] was found to be 2.

B3: PAN17 (crystal) (ssRNA)
RNA: CACCUAUGGAUUUUGUG
B3: in the data set with hvsORF57Δ146 [2], the binding result is on record as “binds”.

B4: 14merS (5'-biotin) (ssRNA)
RNA: CAGUCGCGAAGAGG
Take B4: the binding result with ICP27Δ241 is reported as “no binding”; in the data set with UL69 200-540, “binds”.

B5: 14mer1 (5'-biotin) (ssRNA)
RNA: CCGUCCCCGCCGCU
With B5, the binding result with ksORF57Δ153 is listed as “no binding”; in the data set with ICP27Δ241 it was “no binding”; in the data set with UL69 200-540 it was “binds”; with hvsORF57Δ146 [3] it was “no binding”.

B6: KSHV ORF57 residues 153–455 (ksORF57Δ153) (domain or fragment)
chain: T4 sequence
notes: ORF57/Mta (ICP27 homolog) of Kaposi's sarcoma-associated herpesvirus (KSHV), residues 153-455, the C-terminal ICP27-homology domain; also called C-terminal IHD of ksORF57; source: E. coli T7 express LysY, purified (StrepTrap HP, HRV3C cleavage, Superdex 75); not shown: thioredoxin, N-terminal, cleaved
In the case of B6, in data set [1], the “stoichiometry N” value amounted to 2.

B7: PAN17 (5'-biotin) (ssRNA)
RNA: CACCUAUGGAUUUUGUG
Regarding B7, the binding result with ksORF57Δ153 was “binds”; with ICP27Δ241 it was “no binding”; with UL69 200-540 it was “binds”; with hvsORF57Δ146 [3] it was “binds”.

B8: PAN 42-49 (ssRNA)
RNA: GAUUUUGU
With B8, in the data set with hvsORF57Δ146 [4], the binding result was “binds”.

The values are drawn from article PMC6393246, “Structural identification of conserved RNA binding sites in herpesvirus ORF57 homologs: implications for PAN RNA recognition” (Nucleic Acids Research, 2018).
